From paper PMC3187862

Molecular target: T1, DoeX (AsnC/Lrp family) (Halomonas elongata DSM 2581T, UniProt E1V7V9 1-158)
T1 sequence: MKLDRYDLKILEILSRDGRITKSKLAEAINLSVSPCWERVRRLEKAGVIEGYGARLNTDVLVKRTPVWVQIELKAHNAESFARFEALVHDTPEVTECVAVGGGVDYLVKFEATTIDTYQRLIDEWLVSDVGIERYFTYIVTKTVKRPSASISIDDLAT
Assay: EMSA

B1: F3 (dsDNA)
DNA 1: AGAGGCAGCCGGATATCGGTGACATGATCGTTTGGCGAGCGATTTC
DNA 2: GAAATCGCTCGCCAAACGATCATGTCACCGATATCCGGCTGCCTCT
binding result: binds
